According to patent publication US6881557 (ARROWSMITH TECHNOLOGY LICENSING, dated 2005):

Experiments:
CD28Ig [1] = target: T1, CD28Ig (human, UniProt P10747 19-152); assay: ELISA on CD28Ig coated plates (FIG. 11 legend)
T1 construct: also called GD28Ig; human CD28; not shown: Ig part of CD28Ig; not described

CD28Ig [2] = target: T1, CD28Ig; assay: ELISA, CD28Ig coated plates, detection with anti-human kappa immunoconjugate
chicken lysozyme [3] = target: T2, chicken lysozyme (chicken, UniProt P00698 19-147); assay: intrinsic tryptophan fluorescence quench titration, 200 nM Fab titrated with lysozyme in solution
T2 construct: also called chicken lysozyme antigen

chicken lysozyme [4] = target: T2, chicken lysozyme; assay: fluorescence quench titration; reference is the literature Kd of D1.3 IgG (4 nM)
chicken lysozyme [5] = target: T2, chicken lysozyme; assay: fluorescence quench titration (FIG. 7 legend); FIG. 7 legend, bound only
[6] = target: T3, human glutamic acid decarboxylase 65 kilodalton isoform (human, UniProt Q05329 1-585); assay: immunoprecipitation of 35S-methionine labelled GAD65 with Fab and Protein G-Sepharose; midpoint read visually
T3 construct: also called GAD65; antigen
T3 sequence (Q05329 whole entry, canonical isoform): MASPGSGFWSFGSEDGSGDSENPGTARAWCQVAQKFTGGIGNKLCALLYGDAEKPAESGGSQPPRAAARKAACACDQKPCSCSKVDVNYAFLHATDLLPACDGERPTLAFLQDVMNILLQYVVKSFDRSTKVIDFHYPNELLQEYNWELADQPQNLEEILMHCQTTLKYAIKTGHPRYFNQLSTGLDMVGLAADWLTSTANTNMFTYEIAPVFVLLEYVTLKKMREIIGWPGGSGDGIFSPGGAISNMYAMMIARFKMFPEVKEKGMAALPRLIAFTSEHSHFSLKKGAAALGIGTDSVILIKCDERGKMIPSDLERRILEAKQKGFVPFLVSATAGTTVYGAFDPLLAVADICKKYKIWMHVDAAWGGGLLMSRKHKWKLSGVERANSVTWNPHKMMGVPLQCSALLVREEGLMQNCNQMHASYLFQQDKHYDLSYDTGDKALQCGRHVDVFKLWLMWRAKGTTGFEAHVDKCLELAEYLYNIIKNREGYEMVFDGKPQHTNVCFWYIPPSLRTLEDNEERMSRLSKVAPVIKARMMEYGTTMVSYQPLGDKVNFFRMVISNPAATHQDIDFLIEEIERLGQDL

T2 sequence (P00698 19-147 limits assumed): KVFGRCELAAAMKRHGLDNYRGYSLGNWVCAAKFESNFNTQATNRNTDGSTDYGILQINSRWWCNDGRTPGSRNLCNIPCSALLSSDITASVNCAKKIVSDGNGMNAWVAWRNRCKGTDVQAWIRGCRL

B1: humanized anti-human CD28 (Hu.9.3) Fab fragment (Fab, V domains shown)
VH: EVQLVQSGGGLVQPGGSLRLSCAGSGFTFSDYGVHWVRQAPGKGLEWVSAIWAGGGTNYASSVMGRFTISRDNAKNSLYLQMNSLRAEDMAVYYCARDKGYSYYYSMDYWGQGTLVTVSS
VL: DIVMTQSPDSLAVSLGERATINCRASESVEYYVTSLMAWYQQKPGQPPKLLIYAASNVESGVPDRFSGSGSGTNFSLTISSLQAEDVAVYYCQQSRKVPYTFGQGTKLEIKR
notes: also called humanized 9.3
Ka (CD28Ig [1]): > 1e+06 M⁻¹ | EC50 (CD28Ig [2]): 630 nM

B2: hybrid Fab fragment comprised of human constant domains, mouse 9.3 heavy chain variable domain, and humanized light chain variable domain (Fab, V domains shown)
VH: EVKLQQSGPGLVTPSQSLSITCTVSGFSLSDYGVHWVRQSPGQGLEWLGVIWAGGGTNYNSALMSRKSISKDNSKSQVFLKMNSLQADDTAVYYCARDKGYSYYYSMDYWGQGTSVTVSS
VL: DIVMTQSPDSLAVSLGERATINCRASESVEYYVTSLMAWYQQKPGQPPKLLIYAASNVESGVPDRFSGSGSGTNFSLTISSLQAEDVAVYYCQQSRKVPYTFGQGTKLEIKR
EC50 (CD28Ig [2]): 30 nM

B3: humanized D1.3 Fab (Fab, V domains shown)
VH: QVQLQESGPGLVKPSETLSLTCTVSGGSVSGYGVNWIRQPPGKGLEWIGMIWGDGNTDYNSSLKSRVTISVDTSKNQFSLKLSSVTAADTAVYYCARERDYRLDYWGQGTLVTVSS
VL: AIRMTQSPFSLSASVGDRVTITCRASGNIHNYLAWYQQKPAKAPKLFIYYTTTLADGVPSRFSGSGSGTDYTLTISSLQPEDFATYYCQHFWSTPRTFGGGTKVEIKR
notes: also called SHuD1.3; humanized D1.3 antibody
Kd (chicken lysozyme [3]): 23 nM | factor by which affinity is diminished relative to the subject mouse antibody D1.3 (chicken lysozyme [4]): < 6 fold | Ka (chicken lysozyme [5]): 4.3e+07 M⁻¹

B4: Fab fragment comprised of mouse NGAD65 variable and constant domains (Fab, V domains shown)
VH: QVQLQQPGAELVKPGASVKMSCKASGYRFSSYNMHWVKQTPGQGLEWIGAIYPRSGDTSYNQKFKGKATLTADKSSSTAYMQLGSLTSEDSAVYYCVRSYDYDAPFAFWGQGTLVTVSA
VL: VLTQTPLSLPVSLGDQASISCRSSQSLEHNNGNTYLNWYLQKPGQSPQLLIYRVSNRFSGGLDRFSGSGSGTDFTLKISRVEAEDLGVYFCLQVTHVPFTFGSGTKLEIKR
notes: also called mouse Fab; mouse NGAD65 Fab
EC50 [6]: 0.00036 nM
